# Source: US20160264649A1
# Tests used:
# Experiment in all cases: cell-based or functional assay
# [1] = molecular target: HIV-1 92RW008 Env (HIV-1)
# [2] = molecular target: HIV-1 92RW009 Env (HIV-1)
# [3] = molecular target: HIV-1 92RW020 Env (HIV-1)
# [4] = molecular target: HIV-1 92RW021 Env (HIV-1)
# [5] = molecular target: HIV-1 92RW024 Env (HIV-1)
# [6] = molecular target: HIV-1 92RW026 Env (HIV-1)
# [7] = molecular target: HIV-1 92UG031 Env (HIV-1)
# [8] = molecular target: HIV-1 92UG037 Env (HIV-1)
# [9] = molecular target: HIV-1 93RW029 Env (HIV-1)
# [10] = molecular target: HIV-1 93UG077 Env (HIV-1)
# [11] = molecular target: HIV-1 94KE105 Env (HIV-1)
# [12] = molecular target: HIV-1 94UG103 Env (HIV-1)
# [13] = molecular target: HIV-1 MGRM-A-001 Env (HIV-1)
# [14] = molecular target: HIV-1 MGRM-A-002 Env (HIV-1)
# [15] = molecular target: HIV-1 MGRM-A-003 Env (HIV-1)
# [16] = molecular target: HIV-1 MGRM-A-004 Env (HIV-1)
# [17] = molecular target: HIV-1 MGRM-A-005 Env (HIV-1)
# [18] = molecular target: HIV-1 MGRM-A-006 Env (HIV-1)
# [19] = molecular target: HIV-1 MGRM-A-007 Env (HIV-1)
# [20] = molecular target: HIV-1 MGRM-A-008 Env (HIV-1)
# [21] = molecular target: HIV-1 MGRM-A-009 Env (HIV-1)
# [22] = molecular target: HIV-1 MGRM-A-010 Env (HIV-1)
# [23] = molecular target: HIV-1 MGRM-A-011 Env (HIV-1)
# [24] = molecular target: HIV-1 MGRM-A-012 Env (HIV-1)
# [25] = molecular target: HIV-1 MGRM-A-013 Env (HIV-1)
# [26] = molecular target: HIV-1 MGRM-A-014 Env (HIV-1)
# HIV-1 VLGCA1 Env (HIV-1) = molecular target: HIV-1 VLGCA1 Env (HIV-1)
# [27] = molecular target: HIV-1 92BR020 Env (HIV-1)
# [28] = molecular target: HIV-1 93TH305 Env on pseudovirus (HIV-1)
# [29] = molecular target: HIV-1 APV_13 Env on pseudovirus (HIV-1)
# HIV-1 JRCSF Env (HIV-1) = HIV-1 JRCSF Env (HIV-1) (UniProt P20871)
# [30] = molecular target: HIV-1 JRCSF Env on pseudovirus (HIV-1) (UniProt P20871)
# [31] = molecular target: HIV-1 LAVIC_18 Env on pseudovirus (HIV-1)
# [32] = molecular target: HIV-1 MGRM-AE-008 Env (HIV-1)
# [33] = molecular target: HIV-1 MGRM-AG-002 Env (HIV-1)
# [34] = molecular target: HIV-1 MGRM-AG-005 Env (HIV-1)
# [35] = molecular target: HIV-1 MGRM-C-022 Env on pseudovirus (HIV-1)
# [36] = molecular target: HIV-1 MGRM-C-023 Env on pseudovirus (HIV-1)
# [37] = molecular target: HIV-1 MGRM-Chronic-B-002 Env on pseudovirus (HIV-1)
# [38] = molecular target: HIV-1 MGRM-Chronic-B-003 Env on pseudovirus (HIV-1)
# [39] = molecular target: HIV-1 MGRM-Chronic-B-004 Env on pseudovirus (HIV-1)
# [40] = molecular target: HIV-1 MGRM-Chronic-B-017 Env on pseudovirus (HIV-1)
# [41] = molecular target: HIV-1 MGRM-Chronic-B-020 Env on pseudovirus (HIV-1)
# [42] = molecular target: HIV-1 MGRM-Chronic-B-024 Env on pseudovirus (HIV-1)
# [43] = molecular target: HIV-1 MGRM-D-005 Env (HIV-1)
# [44] = molecular target: HIV-1 MGRM-D-028 Env (HIV-1)
# [45] = molecular target: HIV-1 MGRM-F1-015 Env (HIV-1)
# [46] = molecular target: HIV-1 MGRM-F1-020 Env (HIV-1)
# [47] = molecular target: HIV-1 MGRM-G-004 Env (HIV-1)
# [48] = molecular target: HIV-1 MGRM-G-017 Env (HIV-1)
# [49] = molecular target: HIV-1 MGRM-G-024 Env (HIV-1)
# [50] = molecular target: HIV-1 PVO.4 (Acute) Env on pseudovirus (HIV-1)
# [51] = molecular target: HIV-1 SF162 Env on pseudovirus (HIV-1) (UniProt P19550)
substance,measurement,setting,value
2G12 (antibody),neutralization IC50,[1],22.5 µg/mL
same,neutralization IC50,[2],26.1 µg/mL
same,neutralization IC50,[3],0.48 µg/mL
same,neutralization IC50,[4],> 50 µg/mL
same,neutralization IC50,[5],> 50 µg/mL
same,neutralization IC50,[6],17.2 µg/mL
same,neutralization IC50,[7],> 50 µg/mL
same,neutralization IC50,[8],45.2 µg/mL
same,neutralization IC50,[9],> 50 µg/mL
same,neutralization IC50,[10],> 50 µg/mL
same,neutralization IC50,[11],7.22 µg/mL
same,neutralization IC50,[12],48.1 µg/mL
same,neutralization IC50,[13],> 50 µg/mL
same,neutralization IC50,[14],> 50 µg/mL
same,neutralization IC50,[15],> 50 µg/mL
same,neutralization IC50,[16],> 50 µg/mL
same,neutralization IC50,[17],> 50 µg/mL
same,neutralization IC50,[18],13.8 µg/mL
same,neutralization IC50,[19],> 50 µg/mL
same,neutralization IC50,[20],> 50 µg/mL
same,neutralization IC50,[21],7.47 µg/mL
same,neutralization IC50,[22],17 µg/mL
same,neutralization IC50,[23],> 50 µg/mL
same,neutralization IC50,[24],> 50 µg/mL
same,neutralization IC50,[25],> 50 µg/mL
same,neutralization IC50,[26],> 50 µg/mL
same,neutralization IC50,HIV-1 VLGCA1 Env (HIV-1),> 50 µg/mL
same,neutralization IC50,[27],2.26 µg/mL
same,neutralization IC90,[27],24.1 µg/mL
same,IC50,[28],0.55 µg/mL
same,IC50,[29],9.24 µg/mL
same,neutralization IC50,HIV-1 JRCSF Env (HIV-1),0.66 µg/mL
same,neutralization IC90,HIV-1 JRCSF Env (HIV-1),5.38 µg/mL
same,IC50,[30],0.37 µg/mL
same,IC50,[31],> 50 µg/mL
same,"IC50 (µg/ml), pseudovirus neutralization",[32],> 50 µg/mL
same,"IC50 (µg/ml), pseudovirus neutralization",[33],0.54 µg/mL
same,"IC50 (µg/ml), pseudovirus neutralization",[34],> 50 µg/mL
same,IC50,[35],> 50 µg/mL
same,IC50,[36],> 50 µg/mL
same,IC50,[37],> 50 µg/mL
same,IC50,[38],0.06 µg/mL
same,IC50,[39],8.65 µg/mL
same,IC50,[40],> 50 µg/mL
same,IC50,[41],0.2 µg/mL
same,IC50,[42],> 50 µg/mL
same,"IC50 (µg/ml), pseudovirus neutralization",[43],25.7 µg/mL
same,"IC50 (µg/ml), pseudovirus neutralization",[44],> 50 µg/mL
same,IC50 (pseudovirus neutralization),[45],> 50 µg/mL
same,IC50 (pseudovirus neutralization),[46],> 50 µg/mL
same,"IC50 (µg/ml), pseudovirus neutralization",[47],> 50 µg/mL
same,"IC50 (µg/ml), pseudovirus neutralization",[48],> 50 µg/mL
same,"IC50 (µg/ml), pseudovirus neutralization",[49],> 50 µg/mL
same,IC50,[50],0.8 µg/mL
same,IC50,[51],1.67 µg/mL
2F5 (antibody),neutralization IC50,[1],10.4 µg/mL
same,neutralization IC50,[2],39.1 µg/mL
same,neutralization IC50,[3],3.36 µg/mL
same,neutralization IC50,[4],4.16 µg/mL
same,neutralization IC50,[5],8.22 µg/mL
same,neutralization IC50,[6],8.63 µg/mL
same,neutralization IC50,[7],3.81 µg/mL
same,neutralization IC50,[8],3.24 µg/mL
same,neutralization IC50,[9],> 50 µg/mL
same,neutralization IC50,[10],3.3 µg/mL
same,neutralization IC50,[11],> 50 µg/mL
same,neutralization IC50,[12],1.92 µg/mL
same,neutralization IC50,[13],> 50 µg/mL
same,neutralization IC50,[14],> 50 µg/mL
same,neutralization IC50,[15],7.37 µg/mL
same,neutralization IC50,[16],7.49 µg/mL
same,neutralization IC50,[17],5.7 µg/mL
same,neutralization IC50,[18],15.7 µg/mL
same,neutralization IC50,[19],16.3 µg/mL
same,neutralization IC50,[20],> 50 µg/mL
same,neutralization IC50,[21],9.4 µg/mL
same,neutralization IC50,[22],20.8 µg/mL
same,neutralization IC50,[23],> 50 µg/mL
same,neutralization IC50,[24],2.36 µg/mL
same,neutralization IC50,[25],0.66 µg/mL
same,neutralization IC50,[26],1.43 µg/mL
same,neutralization IC50,HIV-1 VLGCA1 Env (HIV-1),3.9 µg/mL
same,neutralization IC50,[27],> 50 µg/mL
same,neutralization IC90,[27],> 50 µg/mL
same,IC50,[28],7.61 µg/mL
same,IC50,[29],3.81 µg/mL
same,neutralization IC50,HIV-1 JRCSF Env (HIV-1),3.36 µg/mL
same,neutralization IC90,HIV-1 JRCSF Env (HIV-1),25.3 µg/mL
same,IC50,[30],1.85 µg/mL
same,IC50,[31],> 50 µg/mL
same,"IC50 (µg/ml), pseudovirus neutralization",[32],> 50 µg/mL
same,"IC50 (µg/ml), pseudovirus neutralization",[33],0.54 µg/mL
same,"IC50 (µg/ml), pseudovirus neutralization",[34],> 50 µg/mL
same,IC50,[35],> 50 µg/mL
same,IC50,[36],> 50 µg/mL
same,IC50,[37],1.25 µg/mL
same,IC50,[38],1 µg/mL
same,IC50,[39],2.41 µg/mL
same,IC50,[40],> 50 µg/mL
same,IC50,[41],0.78 µg/mL
same,IC50,[42],> 50 µg/mL
same,"IC50 (µg/ml), pseudovirus neutralization",[43],> 50 µg/mL
same,"IC50 (µg/ml), pseudovirus neutralization",[44],> 50 µg/mL
same,IC50 (pseudovirus neutralization),[45],0.1 µg/mL
same,IC50 (pseudovirus neutralization),[46],0.59 µg/mL
same,"IC50 (µg/ml), pseudovirus neutralization",[47],> 50 µg/mL
same,"IC50 (µg/ml), pseudovirus neutralization",[48],0.6 µg/mL
same,"IC50 (µg/ml), pseudovirus neutralization",[49],1.07 µg/mL
same,IC50,[50],> 50 µg/mL
same,IC50,[51],2.52 µg/mL
